Measurements: patent publication US20130224202A1
Positions count from the first letter of the chain named.

B1: scFv clone No. 7, displayed on phage (scFv)
scFv: AQAAELDIVLTQSPAIMSASPGEKVTISCSASSSVSYMYWYQQKPGQPPRLLIYLVSNLESGVPARFSGSGSGTDFTLNIHPVEEEDAATYYCQQYHSYPPTFGAGTKLEIKSSGGGGSGGGGGGSSRSSLEVKLVESGPELKKPGETVKISCKASGYTFTDYSMHWVNQAPGKGLKWMGWINTETGEPSYADDFKGRFAFSLETSASTAYLQINNLKNEDTATYFCATDYGDYFDYWGQGTTLTVSSAKTTPPSVTSGQAGQ
B2: scFv clone No. 4, displayed on phage (scFv)
scFv: AQAAELDIVLTQSPAIMSASPGEKVTISCSASSSVGYMYWYQQKPGSSPKPWIYRPSNLASGVPARFSGSGSGTSYSLTISSMEAEDAATYYCQQYHSYPPTFGAGTKLELKSSGGGGSGGGGGGSSRSSLEVKLVESGPELKKPGETVKISCKASGYTFTDYSMHWVNQAPGKGLKWMGWINTETGEPSYADDFKGRFAFSLETSASTAYLQINNLKNEDTATYFCATDYGDYFDYWGQGTTLTVSSAKTTPPSVTSGQ
B3: scFv clone No. 5, displayed on phage (scFv)
scFv: AQAAELDIVLTQSPAIMSASPGEKVTISCSASSSVSYMYWYQQKPGSSPKPWIYRTSNLASGVPARFSGSGSGTSYSLTISSMEAEDAATYYCQQYHSYPPTFGAGTKLELKSSGGGGSGGGGGGSSRSSLEVKLVESGPELKKPGETVKISCKASGYTFTDYSMHWVNQAPGKGLKWMGWINTETGEPSYADDFKGRFAFSLETSASTAYLQINNLKNEDTATYFCATDYGDYFDYWGQGTTLTVSSAKTTPPSVTSGQAGQ
B4: scFv clone No. 8, displayed on phage (scFv)
scFv: B3 scFv with T56P, K134H
B5: scFv clone No. 6, displayed on phage (scFv)
scFv: B3 scFv with T56P, L131P, K134M
B6: scFv clone No. 23, displayed on phage (scFv)
scFv: B3 scFv with T56P, K134Q, P253A
B7: scFv clone No. 22, displayed on phage (scFv)
scFv: B3 scFv with T56P, G116D, P253A
B8: scFv clone No. 11, displayed on phage (scFv)
scFv: B3 scFv with T11S
B9: scFv clone No. 10, displayed on phage (scFv)
scFv: B3 scFv with T11S, S48P, Y231C
B10: monoclonal antibody produced by Hybridoma Clone 7 (antibody, V domains shown)
VH: EVKLVESGPELKKPGETVKISCKASGYTFTDYSMHWVNQAPGKGLKWMGWINTETGEPSYADDFKGRFAFSLETSASTAYLQINNLKNEDTATYFCATDYGDYFDYWGQGTTLTVSS
VL: DIVLSQSPAIMSASPGEKVTISCSASSSVSYMYWYQQKPGSSPKPWIYRTSNLASGVPARFSGSGSGTSYSLTISSMEAEDAATYYCQQYHSYPPTFGAGTKLELK

target: human prominin-1 expressed in E. coli as a 6*HIS fusion protein (human) (UniProt O43490); assay: phage ELISA on plate-coated human prominin-1, HRP-conjugated anti-M13

Binder | A450 [A450]
B1 | 0.9
B2 | 1
B3 | 1.3
B4 | 1
B5 | 1.3
B6 | 1.1
B7 | 1.2
B8 | 1.4
B9 | 1.2

target: human prominin-1 expressed in E. coli as a 6*HIS fusion protein (human) (UniProt O43490); assay: ELISA on plate-coated human prominin-1, hybridoma secreted antibody diluted at 1:2000

Binder | A450 [A450]
B10 | 1.9
